Reference: US20250339501A1, “COMPOSITIONS AND METHODS FOR TREATING METABOLIC DISEASE” (The Regents of the University of California, priority 2021, published 2025)
Entries after “also recorded” stand apart in the source; their conditions may differ.

How the values were obtained:
JNK = assay: TNFα-induced JNK phosphorylation in HepG2 cells; format: cell-based; settings: human HepG2 liver cells
Source text: As described above, Dj1 administration stimulates AMPK phosphorylation in the liver cells. However, elevated AMPK phosphorylation in vivo was not observed (data not shown). Numerous studies have reported that the c-Jun N terminal kinase (JNK) is critical to the development of steatosis and chronic liver injury in NAFLD (22-25). […] However, not all MAPK pathways were activated. For example, phosphorylation of p42 was not altered by tDj1 treatment (FIG. 6O). Both rDj1 and tDj1 suppressed TNFα and Anisomycin-induced JNK (p54 and p46) phosphorylation in human HepG2 and mouse AML12 liver cells, respectively (FIGS. 6C-6D).

PPARα = PPARα expression and transcriptional activity in the liver; format: in vivo, mouse; settings: liver of NC-fed mice
Protocol: (§1) Also, the transcriptional activity of PPARα was determined to be elevated by Dj1 administration in the liver of both NC- and HFD-fed mice (FIGS. 6L, 6M, 6S, 6T). Furthermore, Dj1 elevated plasma β-hydroxybutyrate (a ketone body) levels in NC-fed mice but not in HFD-fed mice (FIG. 6N, 6U).

[1] = system: liver inflammation, de-novo lipogenesis and gluconeogenesis genes; assay: Gene expression in the liver of NC- or HFD-fed mice; format: in vivo, mouse
Protocol: (§2) A wide variety of mechanisms activate the JNK pathway. […] Moreover, ASK1 is activated by various stresses, including oxidative stress, ER stress, calcium overload, and receptor-mediated inflammatory signals such as TNFα and lipopolysaccharide (LPS) (26,27). rDj1 administration suppressed both baseline and TNFα-induced ROS levels in HepG2 cells, which may contribute to reducing liver inflammation (FIG. 6F).
as §1

HepG2 cells = assay: Reactive oxygen species in HepG2 cells; format: cell-based, human; settings: baseline and TNFα-induced
Source text: as §2

AMPK signaling = assay: RNA sequencing analysis of HepG2 cells; format: cell-based, human
[2] = Intravital imaging of IRDye 800CW-labeled Dj1 after tail-vein injection; format: in vivo, mouse; settings: WT mice
Protocol: Recombinant mouse Dj1 protein (NBP2-59523, Novus) were labeled with near-infrared dyes using IRDye 800CW protein labeling kit-Low MW (Li-COR Biosciences) as described in the manufacturer's instructions. 10 μg of labeled Dj1 protein was injected into wild-type C57BL/6J mouse through the tail vein. The mice were imaged at the indicated time using an IVIS Spectrum (PerkinElmer). For tissue analysis, recipient mice were euthanized by cervical dislocation, and tissues were then dissected and imaged. Fluorescence was detected using excitation and emission filters at 745 nm and 800 nm, respectively.
Myokines contribute to whole-body metabolism by directly signaling to distant organs (15-18). To determine which organs Dj1 targets, WT mice were tail-vein injected with a recombinant Dj1 (rDj1) protein labeled with the near-infrared fluorescent dye IRDye 800CW, and the fluorescent signals were tracked using an optical imaging system (FIGS. 3I, 3J). A robust fluorescent signal could be detected within 5 minutes post-injection. […] Considering that the reagents injected through tail-vein often nonspecifically target the liver, fluorescent-labeled rDj1 was used to determine whether Dj1 could bind to the plasma membrane of liver cells. rDj1 was labeled with Alex 488 and added into the medium of mouse liver cells (AML12 cells) at the indicated time.

mitochondrial complex II = assay: Complex II activity of isolated liver mitochondria from treated HFD-fed mice; format: in vivo, mouse
NC-fed C57BL/6J mice = assay: rDj1 tail-vein injection daily for 5 days in NC-fed mice; format: in vivo, mouse; settings: 0.15 mg/kg/day IV for 5 days
Protocol: C57BL/10cSn-Dmd^mdx/J (001801, mdx) and C57BL/10ScSnJ (000476, WT) mice were ordered directly from The Jackson Laboratory. Different ages of mdx and WT mice were obtained. Animals were weaned 21 days after birth and had free access to food and water and were housed on 12 h light-dark cycle. C57BL/6J males were introduced to a normal diet (NC, Research Diets D15100601) or high-fat diet (HFD, Research Diets D12331), and maintained on a diet for the indicated time. The HFD diet derives 58% of its kilocalories (kcal) from fat (soybean and coconut oil), 25.5% from carbohydrates (sucrose and maltodextrin), and 16.4% from protein (casein). NASH model mice were fed for up to 28 weeks with the NASH diet (Envigo, TD.120528) and 42% fructose (Sigma, F0127) in the water (1,2). The NASH diet is composed of 405.36 g/Kg sucrose and 12.5 g/Kg cholesterol. Recombinant mouse Dj1 protein (Novus, NBP2-59523) or truncated mouse Dj1 (tDj1, GenScript) protein was intravenously injected every day for 5 days or every other day for 2 weeks. Skeletal muscle-specific Park7 knockout mice were generated by crossing Park7 flox mice with Myl1-cre mice (JAX, #024713). Mice were raised in microisolator cages with a 12 h: 12 h light: dark cycle. […]
Plasma and liver NEFA, Cholesterol, and Triglyceride were analyzed by their respective kits (FUJIFILM Wako Diagnostics) […]

mitochondrial complex I = assay: Complex I activity of isolated liver mitochondria from treated HFD-fed mice; format: in vivo, mouse

B1: rDj1: full-length recombinant Dj1 protein; mouse protein (Novus, NBP2-59523) injected in mice, human protein used in HepG2 cells (protein, UniProt Q99LX0 1-189, looked up)
chain: MASKRALVILAKGAEEMETVIPVDVMRRAGIKVTVAGLAGKDPVQCSRDVMICPDTSLEDAKTQGPYDVVVLPGGNLGAQNLSESPMVKEILKEQESRKGLIAAICAGPTALLAHEVGFGCKVTTHPLAKDKMMNGSHYSYSESRVEKDGLILTSRGPGTSFEFALAIVEALVGKDMANQVKAPLVLKD
modifications: full-length
notes: full-length recombinant Dj1 protein; mouse protein (Novus, NBP2-59523) injected in mice, human protein used in HepG2 cells
JNK
  TNFα-induced JNK (p54 and p46) phosphorylation: suppressed; also recorded: inhibits
PPARα
  transcriptional activity of PPARα: elevated
[1]; liver of HFD-fed mice
  reduction of gene expression of de-novo lipogenesis: blunted
  reduction of gene expression of gluconeogenesis: blunted
[1]; liver of NC-fed mice
  gene expression of de-novo lipogenesis: reduced
  gene expression of gluconeogenesis: reduced
HepG2 cells
  ROS levels: suppressed
AMPK signaling
  AMPK signaling (RNA sequencing analysis): upregulated
[2]; 4 hours post-injection, tail-vein
  organs in which most fluorescent signals accumulated: accumulated in the liver, kidney, and urine
[2]; IRDye 800CW-labeled rDj1, tail-vein
  time until robust fluorescent signal detected post-injection: ≤ 5 min
Mitochondrial complex II
  mitochondrial complex II activity: Enhanced
NC-fed C57BL/6J mice
  plasma cholesterol levels: significantly reduced
  plasma non-esterified fatty acids (NEFA): significantly reduced
Mitochondrial complex I
  mitochondrial complex I activity: Enhanced
